Assay results as given in publication PMC8576529, “Handling Several Sugars at a Time: a Case Study of Xyloglucan Utilization by Ruminiclostridium cellulolyticum” (mBio, 2021).
Where two headings read alike, the source gives them in different places. Blank lines part the entries; values can stand above or below the molecule they belong to.

Experiments:
β-Galactosidase Gal42A = molecular target: T1, β-Galactosidase Gal42A; assay: pNPβGal hydrolysis, A400; assay type: biochemical, Ruminiclostridium cellulolyticum; conditions: substrate p-nitrophenyl-β-D-galactoside, 50 mM phosphate pH 7.0, 37°C, read-out: Mean enzyme concn (mM) ± SD^a / β-Galactosidase Gal42A
T1 construct: cytosolic enzyme, purified as formerly reported
Description: pNPβGal hydrolysis, A400 on β-Galactosidase Gal42A

Galactokinase = molecular target: T2, Galactokinase (Ruminiclostridium cellulolyticum, UniProt B8I0X2); assay: galactose phosphorylation, HPLC-RI; assay type: biochemical; conditions: 5 mM GTP, 25 mM MgCl2, 25 mM HEPES pH 7.0, 37°C; read-out: Substrate(s) (fixed cosubstrate concn)^a
T2 construct: gene galK; C-terminal 6xHis tag (pET28a-3238), E. coli BL21(DE3)
T2 sequence (B8I0X2 1-397): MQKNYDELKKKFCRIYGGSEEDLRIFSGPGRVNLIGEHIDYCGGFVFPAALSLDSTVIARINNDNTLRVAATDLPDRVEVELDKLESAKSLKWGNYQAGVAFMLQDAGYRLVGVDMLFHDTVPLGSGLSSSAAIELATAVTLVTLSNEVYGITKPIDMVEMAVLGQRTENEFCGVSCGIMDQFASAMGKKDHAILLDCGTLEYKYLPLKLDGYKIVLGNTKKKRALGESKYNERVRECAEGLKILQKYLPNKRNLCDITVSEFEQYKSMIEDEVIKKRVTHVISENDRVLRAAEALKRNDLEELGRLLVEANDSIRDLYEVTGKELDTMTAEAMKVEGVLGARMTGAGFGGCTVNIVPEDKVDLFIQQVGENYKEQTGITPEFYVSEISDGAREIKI
Description: (§1) galactose phosphorylation, HPLC-RI on Galactokinase

β-Glucosidase Glu3A = molecular target: T3, β-Glucosidase Glu3A; assay: pNPβGlu hydrolysis, A400; assay type: biochemical, Ruminiclostridium cellulolyticum; conditions: competitive; substrate p-nitrophenyl-β-D-glucoside, 50 mM phosphate pH 7.0, 37°C; read-out: Mean enzyme concn (mM) ± SD^a / β-Glucosidase (Glu3A)
T3 construct: cytosolic enzyme, purified as formerly reported
Description: pNPβGlu hydrolysis, A400 on β-Glucosidase Glu3A

[1] = molecular target: T4, Cellobiose phosphorylase CbpA (Ruminiclostridium cellulolyticum, UniProt B8I421); assay: cellobiose phosphorolysis, HPAEC-PAD; assay type: biochemical; conditions: competitive; cellobiose 0.05 to 10 mM varied, 50 mM phosphate, pH 7.0, 37°C; read-out: Inhibitor
T4 construct: gene Ccel_2109; C-terminal 6xHis tag, produced in E. coli, purified to homogeneity
T4 sequence (B8I421 1-811): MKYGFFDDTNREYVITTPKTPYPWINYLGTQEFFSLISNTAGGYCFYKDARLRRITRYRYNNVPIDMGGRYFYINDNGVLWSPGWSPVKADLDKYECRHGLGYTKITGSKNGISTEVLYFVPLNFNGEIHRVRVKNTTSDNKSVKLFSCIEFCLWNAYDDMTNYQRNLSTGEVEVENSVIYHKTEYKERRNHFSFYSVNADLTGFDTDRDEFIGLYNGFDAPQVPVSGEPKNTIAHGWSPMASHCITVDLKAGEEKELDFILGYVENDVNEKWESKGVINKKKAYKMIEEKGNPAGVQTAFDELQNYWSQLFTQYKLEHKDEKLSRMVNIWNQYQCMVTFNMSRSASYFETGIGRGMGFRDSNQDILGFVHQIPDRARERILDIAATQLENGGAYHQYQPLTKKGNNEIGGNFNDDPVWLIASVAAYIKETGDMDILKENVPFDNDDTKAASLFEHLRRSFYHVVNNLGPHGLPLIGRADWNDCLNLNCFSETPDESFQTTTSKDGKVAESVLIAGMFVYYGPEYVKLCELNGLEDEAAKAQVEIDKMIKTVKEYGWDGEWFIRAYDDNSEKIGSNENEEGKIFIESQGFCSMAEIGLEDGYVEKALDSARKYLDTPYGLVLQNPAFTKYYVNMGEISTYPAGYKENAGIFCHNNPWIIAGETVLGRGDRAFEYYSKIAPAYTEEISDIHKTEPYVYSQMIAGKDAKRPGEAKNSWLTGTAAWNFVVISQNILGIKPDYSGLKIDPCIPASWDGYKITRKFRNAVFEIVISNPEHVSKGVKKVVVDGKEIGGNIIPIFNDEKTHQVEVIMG
Description: cellobiose phosphorolysis, HPAEC-PAD on Cellobiose phosphorylase CbpA

α-Xylosidase Xyl31A = molecular target: T5, α-Xylosidase Xyl31A (Ruminiclostridium cellulolyticum, UniProt B8I9A6); assay: isoprimeverose hydrolysis, HPAEC-PAD; assay type: biochemical; conditions: competitive; substrate isoprimeverose 0.5 to 8 mM, 50 mM phosphate pH 6.0, 37°C; read-out: Mean enzyme concn (mM) ± SD^a / α-Xylosidase (Xyl31A)
T5 construct: gene Ccel_1004; cytosolic enzyme, purified as formerly reported
Description: isoprimeverose hydrolysis, HPAEC-PAD on α-Xylosidase Xyl31A

purified protein [2] = substrate: Nc1ncnc2c1ncn2[C@@H]1O[C@H](COP(=O)(O)OP(=O)(O)OP(=O)(O)O)[C@@H](O)[C@H]1O; assay: purified protein; assay type: biochemical, Ruminiclostridium cellulolyticum; conditions: 5 mM glucose, 25 mM MgCl2, 25 mM HEPES pH 7.0, 37°C, ATP tested only up to 20 mM (below Km)
Description: (§2) glucose phosphorylation, HPLC-RI on Hexokinase

purified protein [3] = substrate: Nc1nc2c(ncn2[C@@H]2O[C@H](COP(=O)(O)OP(=O)(O)OP(=O)(O)O)[C@@H](O)[C@H]2O)c(=O)[nH]1; assay: purified protein; assay type: biochemical, Ruminiclostridium cellulolyticum; conditions: 5 mM glucose, 25 mM MgCl2, 25 mM HEPES pH 7.0, 37°C
Description: as §2

isomerization, HPLC-RI = substrate: O=C(CO)[C@@H](O)[C@H](O)CO; assay: isomerization, HPLC-RI; assay type: biochemical, Ruminiclostridium cellulolyticum; conditions: 10 mM MgCl2, 25 mM HEPES pH 7.0, 37°C
Description: isomerization, HPLC-RI on Xylose isomerase

isomerization, HPAEC-PAD = substrate: O=P(O)(O)O[C@H]1O[C@H](CO)[C@@H](O)[C@H](O)[C@H]1O; assay: isomerization, HPAEC-PAD; assay type: biochemical, Ruminiclostridium cellulolyticum; conditions: 25 mM HEPES pH 7.0, 37°C
Description: isomerization, HPAEC-PAD on α-Phosphoglucomutase

[4] = substrate: Nc1ncnc2c1ncn2[C@@H]1O[C@H](COP(=O)(O)OP(=O)(O)OP(=O)(O)O)[C@@H](O)[C@H]1O; assay: galactose phosphorylation, HPLC-RI; assay type: biochemical, Ruminiclostridium cellulolyticum; conditions: 100 mM galactose, 25 mM MgCl2, 25 mM HEPES pH 7.0, 37°C
Description: as §1

[5] = substrate: Nc1nc2c(ncn2[C@@H]2O[C@H](COP(=O)(O)OP(=O)(O)OP(=O)(O)O)[C@@H](O)[C@H]2O)c(=O)[nH]1; assay: galactose phosphorylation, HPLC-RI; assay type: biochemical, Ruminiclostridium cellulolyticum; conditions: 100 mM galactose, 25 mM MgCl2, 25 mM HEPES pH 7.0, 37°C
Description: as §1

T5 sequence (B8I9A6 entry or part of it): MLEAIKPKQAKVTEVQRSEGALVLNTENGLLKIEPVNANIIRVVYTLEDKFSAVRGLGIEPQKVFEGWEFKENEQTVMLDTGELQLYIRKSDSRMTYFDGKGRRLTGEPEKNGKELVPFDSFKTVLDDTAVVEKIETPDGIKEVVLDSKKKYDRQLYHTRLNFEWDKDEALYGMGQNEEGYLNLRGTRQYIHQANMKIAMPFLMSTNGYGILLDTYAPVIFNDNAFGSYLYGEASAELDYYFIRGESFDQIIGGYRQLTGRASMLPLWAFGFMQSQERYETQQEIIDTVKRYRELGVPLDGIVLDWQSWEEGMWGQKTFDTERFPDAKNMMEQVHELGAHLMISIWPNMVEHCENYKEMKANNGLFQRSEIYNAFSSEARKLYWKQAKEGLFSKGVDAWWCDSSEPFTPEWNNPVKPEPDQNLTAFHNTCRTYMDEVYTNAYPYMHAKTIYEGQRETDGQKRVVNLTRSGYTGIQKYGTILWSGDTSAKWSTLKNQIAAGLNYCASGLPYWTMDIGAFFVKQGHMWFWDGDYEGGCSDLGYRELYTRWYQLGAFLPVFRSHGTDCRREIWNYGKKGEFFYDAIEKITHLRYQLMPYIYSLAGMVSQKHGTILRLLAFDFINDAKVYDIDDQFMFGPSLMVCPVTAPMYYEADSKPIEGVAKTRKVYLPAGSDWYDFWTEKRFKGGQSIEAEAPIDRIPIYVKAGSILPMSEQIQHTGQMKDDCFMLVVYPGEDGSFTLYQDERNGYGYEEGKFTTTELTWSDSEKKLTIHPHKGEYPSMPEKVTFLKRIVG

Molecule: OC[C@H]1OC(O)[C@H](O)[C@@H](O)[C@H]1O (stereo partly shown) [Galactose]
Ki (β-Galactosidase Gal42A; competitive): 2.35 ± 0.05 mM
Km (Galactokinase): 15.5 ± 1.8 mM

Ki (β-Galactosidase Gal42A; noncompetitive): 19.3 ± 1.41 mM
Ki (β-Glucosidase Glu3A): 36.3 ± 5.57 mM
Molecule: OC[C@H]1O[C@@H](O[C@H]2[C@H](O)[C@@H](O)C(O)O[C@@H]2CO)[C@H](O)[C@@H](O)[C@@H]1O (stereo partly shown) [Cellobiose]

Ki [1]: 0.68 ± 0.04 mM
Ki (α-Xylosidase Xyl31A): 1.83 ± 0.42 mM
Ki (β-Glucosidase Glu3A): 3.99 ± 0.33 mM
Molecule: OC[C@H]1OC(O)[C@H](O)[C@@H](O)[C@@H]1O (stereo partly shown) [Glucose]

B1: Hexokinase (Ruminiclostridium cellulolyticum H10) (protein)
chain: MGSKLEIVQDVINAFEVNKESMLRTAMLFKETMEKSLNGEKTCLKMLPSYIGKPTGKEQGTFMTIDMGGTNFRCTKYKINNGNFEKVGEIKQKLINKEKNYDLTKSDSDEKQLFGFMAECIGELLEPEESLYLGNTFSFPCRQEGINDAYLIQWTKEITTSGVVGQNINKLLEQSLKEKNINVKPVAILNDTVGTLLVAMYSYQTADIGSIMGTGHNTCYLENNHPLNGQKMIVNIESGNYNVGLPVTKYDEIIDKNSQIPGAQLLEKMVSGYYMGSLLKEVCKDLYKNNALFTNEDVDIDAFFNQNFNALMVENFILYPSNTKEQYKCSIEDAEIVKRVSEAILKRTVRLVAVSHMGILFHQENSGTSVNNEHVIAIDGTIYEKMPNAPQLMKEAFREALGDDASNIEIRLVKDGSGLGAAIAAAFAVTQ
notes: C-terminal 6xHis tag (pET28a-3221), E. coli BL21(DE3)
Km (purified protein [2]): 32.2 ± 7.4 mM
kcat (purified protein [2]): 8,781 ± 1,418 IU μmol^−1
Km (purified protein [3]): 0.40 ± 0.07 mM
kcat (purified protein [3]): 11,160 ± 543 IU μmol^−1

B2: Xylose isomerase (Ruminiclostridium cellulolyticum H10) (protein)
chain: MSEVFSGISNIKFEGSGSDNPLAFKYYDPKAVIGGKTMEEHLRFAVAYWHTFAAPGADMFGAGSYVRPWNTMSDPLEIAKYKVEANFEFIEKLGAPFFAFHDRDIAPEGDTLAETNKNLDTIVSVIKDRMKSSPVKLLWGTTNAFGNPRFMHGASTSPNADIFAYAAAQVKKAMEITKELGGENYVFWGGREGYETLLNTDMKLELDNLARFLKMAVDYAKEIGFDGQFLIEPKPKEPTKHQYDFDTATVIGFLKTYGLDPYFKMNIEANHATLAGHTFQHELAMCRINDMLGSIDANQGDVMLGWDTDQFPTNLYDATLAMVEVLKAGGLKKGGLNFDSKVRRGSFEPSDLFYGHIAGMDTFAKGLIIANKIVEDGKFDAFVADRYSSYTNGIGKDIVEGKVGFKELEQYALTAKIQNKSGRQEMLEALLNQYILETK
notes: C-terminal 6xHis tag (plasmid printed as pET28a-3439), E. coli BL21(DE3)
Km (isomerization, HPLC-RI): 2.0 ± 0.2 mM
kcat (isomerization, HPLC-RI): 63.5 ± 1.8 IU μmol^−1

B3: α-Phosphoglucomutase (Ruminiclostridium cellulolyticum H10) (protein)
chain: MEYLSKLNFWLDNEYFDQDTKNELLSIKNNAKEVEDRFYKSLEFGTGGLRGIIGAGTNRINIYTVRVASQGLANYINQMGKQDKGIVIAYDPRFMSPEFSLEAAKVFCANGIKAYLFDELRPTPQLSFAVRYLKAAAGVVVTASHNPKQYNGYKVYGEDGGQLSIDGSNAVISEINKITDITKVNIISKEDAASKGLLQIIGSEIDDAYIEMLKKLRINKDAVSKVADTFKIVYTPLHGAGNKPVRRILAESGFKEVLVVKEQELPDSQFSTVKSPNPEERSAFELAIKLASDNNVDLIIGTDPDSDRVGVVVRKNDGEYAVLTGNQTGCLLLEYILTAMKEEGKLPANGFVVKTIVTTELARIIADFYNVELVEVLTGFKFIGEQIKLRDENGNQKYLFGFEESYGYLAGTDVRDKDAVVASMLVAEMAAYYKVKGISLYDALTNLYEKYGYFVEGISSFTLEGKDGVMKIKEALTTMRKTKYESFGGIKVKAIRDYQKSERHVIASGATEKITLPESDVLYFEMEDGSWFCVRPSGTEPKIKIYYGVSDRTLNLSQDKLEKFKAGVLDVIKPLL
notes: C-terminal 6xHis tag (pET28a-1417), E. coli BL21(DE3)
Km (isomerization, HPAEC-PAD): 0.155 ± 0.055 mM
kcat (isomerization, HPAEC-PAD): 1,768 ± 19 IU μmol^−1

B4: Galactokinase (Ruminiclostridium cellulolyticum H10) (protein)
chain: MQKNYDELKKKFCRIYGGSEEDLRIFSGPGRVNLIGEHIDYCGGFVFPAALSLDSTVIARINNDNTLRVAATDLPDRVEVELDKLESAKSLKWGNYQAGVAFMLQDAGYRLVGVDMLFHDTVPLGSGLSSSAAIELATAVTLVTLSNEVYGITKPIDMVEMAVLGQRTENEFCGVSCGIMDQFASAMGKKDHAILLDCGTLEYKYLPLKLDGYKIVLGNTKKKRALGESKYNERVRECAEGLKILQKYLPNKRNLCDITVSEFEQYKSMIEDEVIKKRVTHVISENDRVLRAAEALKRNDLEELGRLLVEANDSIRDLYEVTGKELDTMTAEAMKVEGVLGARMTGAGFGGCTVNIVPEDKVDLFIQQVGENYKEQTGITPEFYVSEISDGAREIKI
notes: C-terminal 6xHis tag (pET28a-3238), E. coli BL21(DE3)
Km [4]: 13.71 ± 2.42 mM
kcat [4]: 4,853 ± 419 IU μmol^−1
Km [5]: 0.99 ± 0.13 mM
kcat [5]: 1,704 ± 75 IU μmol^−1
